From article PMC5487423 (2017) come the findings set out here.

Targets include CCL15_HUMAN; CCL23_HUMAN; CCL27_HUMAN; CCL13_HUMAN (Homo sapiens); CCL11 (human, UniProt P51671 24-97); CCL2_MOUSE (Mus musculus); CCL7 (human, UniProt P80098 24-99); CCL2 (human, UniProt P13500 24-99); CCL5_MOUSE (Mus musculus).
Assay in all cases: BLI
The target in the next experiment is T1, CCL4_HUMAN (Homo sapiens).
T1 chain: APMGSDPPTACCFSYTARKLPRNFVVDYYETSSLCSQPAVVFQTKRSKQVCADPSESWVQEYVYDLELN

In a further experiment the target is T2, CCL5 (human, UniProt P13501 24-91).
T2 chain: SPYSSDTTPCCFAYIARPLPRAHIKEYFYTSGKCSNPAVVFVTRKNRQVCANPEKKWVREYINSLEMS

A further experiment deals with T3, CCL11_MOUSE (Mus musculus).
T3 chain: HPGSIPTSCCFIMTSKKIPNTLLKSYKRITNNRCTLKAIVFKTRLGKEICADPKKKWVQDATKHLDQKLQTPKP

The target in the next experiment is T4, CCL17_HUMAN (Homo sapiens).
T4 chain: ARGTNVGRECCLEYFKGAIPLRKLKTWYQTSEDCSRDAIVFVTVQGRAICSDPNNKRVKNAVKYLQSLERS

A further experiment has as its target T5, CCL4_MOUSE (Mus musculus).
T5 chain: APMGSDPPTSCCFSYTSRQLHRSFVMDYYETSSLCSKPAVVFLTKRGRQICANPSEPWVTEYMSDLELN

The target in the next experiment is T6, CCL19_HUMAN (Homo sapiens).
T6 chain: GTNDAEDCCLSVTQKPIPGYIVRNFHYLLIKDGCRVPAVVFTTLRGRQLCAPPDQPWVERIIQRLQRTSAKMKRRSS

Another experiment deals with T7, CCL3_MOUSE (Mus musculus).
T7 chain: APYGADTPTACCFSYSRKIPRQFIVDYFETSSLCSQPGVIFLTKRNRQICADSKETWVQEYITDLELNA

Another experiment deals with T8, CCL24_HUMAN (Homo sapiens).
T8 chain: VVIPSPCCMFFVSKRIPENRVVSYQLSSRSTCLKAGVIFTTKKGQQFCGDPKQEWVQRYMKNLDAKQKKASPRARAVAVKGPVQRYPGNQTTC

Another experiment deals with T9, CCL16_HUMAN (Homo sapiens).
T9 chain: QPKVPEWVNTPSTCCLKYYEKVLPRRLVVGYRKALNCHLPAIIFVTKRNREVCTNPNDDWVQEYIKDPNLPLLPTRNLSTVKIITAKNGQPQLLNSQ

The next experiment deals with T10, CCL22_HUMAN (Homo sapiens).
T10 chain: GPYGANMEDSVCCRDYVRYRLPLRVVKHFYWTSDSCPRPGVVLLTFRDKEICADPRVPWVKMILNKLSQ

A further experiment deals with T11, CCL22_MOUSE (Mus musculus).
T11 chain: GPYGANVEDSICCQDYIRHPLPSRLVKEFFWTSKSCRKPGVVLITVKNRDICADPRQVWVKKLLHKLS

For a further experiment, the target named is T12, CCL8 (human, UniProt P80075 24-99).
T12 chain: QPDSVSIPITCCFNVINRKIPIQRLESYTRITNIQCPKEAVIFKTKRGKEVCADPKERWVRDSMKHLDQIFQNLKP

In another experiment the target is T13, CCL18_HUMAN (Homo sapiens).
T13 chain: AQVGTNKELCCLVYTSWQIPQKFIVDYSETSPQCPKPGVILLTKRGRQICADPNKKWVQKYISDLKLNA

Another experiment has as its target T14, CCL3 (human, UniProt P10147 24-92).
T14 chain: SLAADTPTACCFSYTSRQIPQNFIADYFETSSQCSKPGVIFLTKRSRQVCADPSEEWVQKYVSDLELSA

Chain of CCL13_HUMAN (Homo sapiens) (chain, as listed by the source): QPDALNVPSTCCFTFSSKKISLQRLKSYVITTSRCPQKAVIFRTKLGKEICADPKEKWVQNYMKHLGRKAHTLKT
Chain of CCL5_MOUSE (Mus musculus) (P30882 24-91): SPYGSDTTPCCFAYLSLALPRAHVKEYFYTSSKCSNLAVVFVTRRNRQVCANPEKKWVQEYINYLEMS
Chain of CCL7 (P80098 24-99): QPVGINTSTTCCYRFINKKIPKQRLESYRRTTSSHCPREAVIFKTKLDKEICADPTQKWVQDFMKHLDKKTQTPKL
Chain of CCL2_MOUSE (Mus musculus) (chain, as listed by the source): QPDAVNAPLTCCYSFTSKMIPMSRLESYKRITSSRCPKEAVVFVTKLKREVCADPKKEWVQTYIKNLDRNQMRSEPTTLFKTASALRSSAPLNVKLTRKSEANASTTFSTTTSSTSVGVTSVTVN
Chain of CCL11 (P51671 24-97): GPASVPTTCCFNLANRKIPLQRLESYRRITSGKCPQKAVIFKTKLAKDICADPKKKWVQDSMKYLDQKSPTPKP
Chain of CCL2 (P13500 24-99): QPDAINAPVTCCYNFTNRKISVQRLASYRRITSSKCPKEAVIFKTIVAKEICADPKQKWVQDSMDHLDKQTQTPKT

B1: P991_AMBCA, purified, C-terminal StrepII-8xHis tag (natural protein)
chain: ETGENGEGTTQPDYDNSTDYYNYEDFKCTCPAPHLNNTNGTVMKPIGCYYTCNVTRCTAPDTYPCYNLTEHQAKNLTTSPTTLCAVGNCDHGICVPNGTKELCFKAPNLEE
As for B1, the Kd was found to be 160 nM in the experiment with CCL15_HUMAN; 5.6 nM with CCL23_HUMAN; 39 nM with CCL27_HUMAN; 5.82 nM with CCL4_HUMAN; 0.419 nM with CCL13_HUMAN; 1.47 nM with CCL5. Also, the Kd in the experiment with CCL11_MOUSE turned out to be 1.11 nM; in the experiment with CCL17_HUMAN, 7.66 nM; with CCL11 it was 3.43 nM; with CCL4_MOUSE, 0.401 nM; with CCL19_HUMAN, 14.4 nM; with CCL3_MOUSE, 2.48 nM. Further, the Kd came to 6.54 nM in the experiment with CCL24_HUMAN; 1.28 nM with CCL16_HUMAN; 24.3 nM with CCL2_MOUSE; 3.97 nM with CCL22_HUMAN; 8.59 nM with CCL22_MOUSE; 0.514 nM in the experiment with CCL7. In addition, the equilibrium dissociation constant (Kd) with CCL8 came to 8.79 nM; with CCL2, 12.2 nM; in the experiment with CCL18_HUMAN it was 0.209 nM; with CCL5_MOUSE it was 2.12 nM; with CCL3 it was 1.08 nM.
